Measurements taken from the Human Domainome abundance scans (Beltran et al. 2025).
± gives the uncertainty stated by the source.

B1: 3'-5' exoribonuclease 1, residues 65 to 114; numbered along this chain, Q8IV48 (parent)
chain: VYKEIAITNGCINRMSKEELRAKLSEFKLETRGVKDVLKKRLKNYYKKQK

Variants of: B1
Experiment: abundance fitness (aPCA) (normalised: wild type 0, dead -1); higher = more abundant; growth selection in yeast, the domain comes from the species named
Conditions: Homo sapiens

Row | Variant | abundance fitness
1 | VYKEIAITNGCINRMSKEELRAKLSEFKLETRGPKDVLKKRLKNYYKKQK [V34P] | -0.379 ± 0.055
2 | VYKEIAITNGCINRMSKEELRAKLSEFKLETRGCKDVLKKRLKNYYKKQK [V34C] | -0.078 ± 0.059
3 | VYKEIAITNGCINRMSKEELRAKLSEFKLETRGIKDVLKKRLKNYYKKQK [V34I] | -0.064 ± 0.042
4 | VYKEIAITNGCINRMSKEELRAKLSEFKLETRGNKDVLKKRLKNYYKKQK [V34N] | 0.039 ± 0.055
5 | VYKEIAITNGCINRMSKEELRAKLSEFKLETRGKKDVLKKRLKNYYKKQK [V34K] | 0.079 ± 0.08
6 | VYKEIAITNGCINRMSKEELRAKLSEFKLETRGAKDVLKKRLKNYYKKQK [V34A] | -0.177 ± 0.051
7 | VYKEIAITNGCINRMSKEELRAKLSEFKLETRGLKDVLKKRLKNYYKKQK [V34L] | -0.213 ± 0.044
8 | VYKEIAITNGCINRMSKEELRAKLSEFKLETRGTKDVLKKRLKNYYKKQK [V34T] | 0.046 ± 0.051
9 | VYKEIAITNGCINRMSKEELRAKLSEFKLETRGSKDVLKKRLKNYYKKQK [V34S] | -0.109 ± 0.043
10 | VYKEIAITNGCINRMSKEELRAKLSEFKLETRGHKDVLKKRLKNYYKKQK [V34H] | 0.054 ± 0.051
11 | VYKEIAITNGCINRMSKEELRAKLSEFKLETRGWKDVLKKRLKNYYKKQK [V34W] | -0.352 ± 0.077
12 | VYKEIAITNGCINRMSKEELRAKLSEFKLETRGGKDVLKKRLKNYYKKQK [V34G] | -0.213 ± 0.05
13 | VYKEIAITNGCINRMSKEELRAKLSEFKLETRGDKDVLKKRLKNYYKKQK [V34D] | -0.293 ± 0.077
14 | VYKEIAITNGCINRMSKEELRAKLSEFKLETRGQKDVLKKRLKNYYKKQK [V34Q] | -0.241 ± 0.1
15 | VYKEIAITNGCINRMSKEELRAKLSEFKLETRGMKDVLKKRLKNYYKKQK [V34M] | -0.582 ± 0.075
16 | VYKEIAITNGCINRMSKEELRAKLSEFKLETRGEKDVLKKRLKNYYKKQK [V34E] | -0.553 ± 0.11
17 | VYKEIAITNGCINRMSKEELRAKLSEFKLETRGRKDVLKKRLKNYYKKQK [V34R] | 0.11 ± 0.05
18 | VYKEIAITNGCINRMSKEELRAKLSEFKLETRGFKDVLKKRLKNYYKKQK [V34F] | -0.245 ± 0.048
19 | VYKEIAITNGCINRMSKEELRAKLSEFKLETRGYKDVLKKRLKNYYKKQK [V34Y] | -0.244 ± 0.057
20 | VYKEIAITNGCINRMSKEELRAKLSEFKLETRGVKDVRKKRLKNYYKKQK [L38R] | -0.948 ± 0.072
21 | VYKEIAITNGCINRMSKEELRAKLSEFKLETRGVKDVTKKRLKNYYKKQK [L38T] | -0.993 ± 0.065
22 | VYKEIAITNGCINRMSKEELRAKLSEFKLETRGVKDVGKKRLKNYYKKQK [L38G] | -1.09 ± 0.1
23 | VYKEIAITNGCINRMSKEELRAKLSEFKLETRGVKDVWKKRLKNYYKKQK [L38W] | -0.629 ± 0.087
24 | VYKEIAITNGCINRMSKEELRAKLSEFKLETRGVKDVEKKRLKNYYKKQK [L38E] | -0.933 ± 0.2
25 | VYKEIAITNGCINRMSKEELRAKLSEFKLETRGVKDVSKKRLKNYYKKQK [L38S] | -0.458 ± 0.042
26 | VYKEIAITNGCINRMSKEELRAKLSEFKLETRGVKDVAKKRLKNYYKKQK [L38A] | -0.893 ± 0.11

Row | Variant | abundance fitness
27 | VYKEIAITNGCINRMSKEELRAKLSEFKLETRGVKDVNKKRLKNYYKKQK [L38N] | -0.95 ± 0.07
28 | VYKEIAITNGCINRMSKEELRAKLSEFKLETRGVKDVHKKRLKNYYKKQK [L38H] | -1.02 ± 0.076
29 | VYKEIAITNGCINRMSKEELRAKLSEFKLETRGVKDVMKKRLKNYYKKQK [L38M] | -0.338 ± 0.066
30 | VYKEIAITNGCINRMSKEELRAKLSEFKLETRGVKDVQKKRLKNYYKKQK [L38Q] | -0.874 ± 0.076
31 | VYKEIAITNGCINRMSKEELRAKLSEFKLETRGVKDVYKKRLKNYYKKQK [L38Y] | -1.05 ± 0.085
32 | VYKEIAITNGCINRMSKEELRAKLSEFKLETRGVKDVFKKRLKNYYKKQK [L38F] | -0.668 ± 0.049
33 | VYKEIAITNGCINRMSKEELRAKLSEFKLETRGVKDVPKKRLKNYYKKQK [L38P] | -0.968 ± 0.072
34 | VYKEIAITNGCINRMSKEELRAKLSEFKLETRGVKDVKKKRLKNYYKKQK [L38K] | -0.828 ± 0.11
35 | VYKEIAITNGCINRMSKEELRAKLSEFKLETRGVKDVIKKRLKNYYKKQK [L38I] | -0.541 ± 0.049
36 | VYKEIAITNGCINRMSKEELRAKLSEFKLETRGVKDVDKKRLKNYYKKQK [L38D] | -0.376 ± 0.25
37 | VYKEIAITNGCINRMSKEELRAKLSEFKLETRGVKDYLKKRLKNYYKKQK [V37Y] | -0.853 ± 0.095
38 | VYKEIAITNGCINRMSKEELRAKLSEFKLETRGVKDRLKKRLKNYYKKQK [V37R] | -0.124 ± 0.066
39 | VYKEIAITNGCINRMSKEELRAKLSEFKLETRGVKDGLKKRLKNYYKKQK [V37G] | -0.639 ± 0.08
40 | VYKEIAITNGCINRMSKEELRAKLSEFKLETRGVKDALKKRLKNYYKKQK [V37A] | -0.037 ± 0.061
41 | VYKEIAITNGCINRMSKEELRAKLSEFKLETRGVKDHLKKRLKNYYKKQK [V37H] | -0.695 ± 0.069
42 | VYKEIAITNGCINRMSKEELRAKLSEFKLETRGVKDNLKKRLKNYYKKQK [V37N] | -0.321 ± 0.076
43 | VYKEIAITNGCINRMSKEELRAKLSEFKLETRGVKDCLKKRLKNYYKKQK [V37C] | -0.191 ± 0.078
44 | VYKEIAITNGCINRMSKEELRAKLSEFKLETRGVKDELKKRLKNYYKKQK [V37E] | -0.096 ± 0.098
45 | VYKEIAITNGCINRMSKEELRAKLSEFKLETRGVKDPLKKRLKNYYKKQK [V37P] | -1.02 ± 0.11
46 | VYKEIAITNGCINRMSKEELRAKLSEFKLETRGVKDWLKKRLKNYYKKQK [V37W] | -0.763 ± 0.12
47 | VYKEIAITNGCINRMSKEELRAKLSEFKLETRGVKDDLKKRLKNYYKKQK [V37D] | -0.25 ± 0.11
48 | VYKEIAITNGCINRMSKEELRAKLSEFKLETRGVKDQLKKRLKNYYKKQK [V37Q] | -0.148 ± 0.075
49 | VYKEIAITNGCINRMSKEELRAKLSEFKLETRGVKDTLKKRLKNYYKKQK [V37T] | 0.01 ± 0.063
50 | VYKEIAITNGCINRMSKEELRAKLSEFKLETRGVKDKLKKRLKNYYKKQK [V37K] | 0.027 ± 0.075
51 | VYKEIAITNGCINRMSKEELRAKLSEFKLETRGVKDLLKKRLKNYYKKQK [V37L] | -0.544 ± 0.052
52 | VYKEIAITNGCINRMSKEELRAKLSEFKLETRGVKDILKKRLKNYYKKQK [V37I] | -0.228 ± 0.046
